5 molecules from article PMC12429042, “Contribution of Second-Shell Residues to PLP-Dependent Transaminase Catalysis: A Case Study of D-Amino Acid Transaminase from Desulfomonile tiedjei” (International Journal of Molecular Sciences, 2025) can be followed below.

The target of series [1] is T1, DestiTA (Desulfomonile tiedjei, UniProt I4C827, T199N).
T1 construct: gene Desti_3054; recombinant in E. coli Rosetta(DE3) pLysS, codon-optimized gene in modified pET-21d; N-terminal (His)6-TEV tag cut with TEV protease; homodimer about 68 kDa by gel filtration
Description: thermal shift assay (ThermoFluor) on apoenzyme, quadratic fit. Format: binding. The following applies: 50 mM K-phosphate, pH 8.0; 2 µM apoenzyme incubated with 0.5–500 µM PLP 1 h at 25 °C; covalent (Schiff base to K158). A general note: DSF heats the sample and reads unfolding from a dye or from intrinsic fluorescence.

Series [2] addresses T2, DestiTA (Desulfomonile tiedjei, UniProt I4C827, T199Q).
T2 construct: gene Desti_3054; recombinant in E. coli Rosetta(DE3) pLysS, codon-optimized gene in modified pET-21d; N-terminal (His)6-TEV tag cut with TEV protease; homodimer about 68 kDa by gel filtration
The series is described as above. The conditions noted are these: 50 mM K-phosphate, pH 8.0; 2 µM apoenzyme incubated with 0.5–500 µM PLP 1 h at 25 °C; covalent (Schiff base to K158). Format: binding.

The target of series [3] is T3, DestiTA (Desulfomonile tiedjei, UniProt I4C827).
T3 construct: gene Desti_3054; recombinant in E. coli Rosetta(DE3) pLysS, codon-optimized gene in modified pET-21d; N-terminal (His)6-TEV tag cut with TEV protease; homodimer about 68 kDa by gel filtration
T3 sequence (I4C827 1-302): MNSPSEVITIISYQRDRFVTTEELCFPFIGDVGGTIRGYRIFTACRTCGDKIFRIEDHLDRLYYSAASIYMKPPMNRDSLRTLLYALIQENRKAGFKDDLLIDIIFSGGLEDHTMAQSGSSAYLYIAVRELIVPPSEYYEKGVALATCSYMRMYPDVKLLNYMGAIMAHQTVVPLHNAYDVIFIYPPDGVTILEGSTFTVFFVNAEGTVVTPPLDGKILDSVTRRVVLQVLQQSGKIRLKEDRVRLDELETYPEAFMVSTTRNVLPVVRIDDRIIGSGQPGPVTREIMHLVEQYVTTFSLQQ
Described as above. The conditions noted are these: 50 mM K-phosphate, pH 8.0; 2 µM apoenzyme incubated with 0.5–500 µM PLP 1 h at 25 °C; covalent (Schiff base to K158). The format is binding.

Substrate in series [4]: C[C@@H](N)C(=O)O
Description: purified protein. The following applies: co-substrate α-ketoglutarate, 50 mM K-phosphate, 30 µM PLP.

Substrate in series [5]: O=C(O)CCC(=O)C(=O)O
In words: purified protein. Format: biochemical, Desulfomonile tiedjei. The conditions noted are these: co-substrate D-alanine, 50 mM K-phosphate, 30 µM PLP.

Series [6] concerns the molecule itself. Description: SEC; gel filtration of the purified enzyme; molecular weight approximately 68 kDa for the WT (subunit 34.2 kDa); self-association, homodimer. In general terms: In gel filtration, larger molecules generally elute earlier.
Substrate in series [7]: C[C@@H](N)c1ccccc1
Description: purified protein. The format is biochemical, Desulfomonile tiedjei. The following applies: co-substrate α-ketoglutarate, 50 mM Na-pyrophosphate, pH 9.0, 50 °C, 30 µM PLP.

Consider `Cc1ncc(COP(=O)(O)O)c(C=O)c1O` [PLP], for which the Kd in series [1] is 33 ± 2 µM; in series [2] it was 2.2 ± 0.4 µM; in series [3], 11 ± 1 µM.

B1: DestiTA T43E variant (enzyme, Desulfomonile tiedjei DSM 6799, UniProt I4C827 1-302, looked up)
chain: MNSPSEVITIISYQRDRFVTTEELCFPFIGDVGGTIRGYRIFEACRTCGDKIFRIEDHLDRLYYSAASIYMKPPMNRDSLRTLLYALIQENRKAGFKDDLLIDIIFSGGLEDHTMAQSGSSAYLYIAVRELIVPPSEYYEKGVALATCSYMRMYPDVKLLNYMGAIMAHQTVVPLHNAYDVIFIYPPDGVTILEGSTFTVFFVNAEGTVVTPPLDGKILDSVTRRVVLQVLQQSGKIRLKEDRVRLDELETYPEAFMVSTTRNVLPVVRIDDRIIGSGQPGPVTREIMHLVEQYVTTFSLQQ
notes: DestiTA of Desulfomonile tiedjei DSM 6799, gene Desti_3054, Uniprot ID I4C827_DESTA, with T43E; Made by single-primer site-directed mutagenesis; also called the T43E variant; source: E. coli, purified as described for the WT DestiTA; not shown: His6, N-terminal, cleaved
Consider B1, for which, in series [4] (pH 6.5, 40 °C, pH 6.5, 40.0 °C), the Km was found to be 2900 ± 800 µM, the catalytic constant (kcat) turned out to be 0.15 s⁻¹ and the kcat/Km was 52 M⁻¹ s⁻¹. Moreover, in series [5] (pH 6.5, 40 °C), the Km is 2800 ± 900 µM, the kcat was 0.15 ± 0.01 s⁻¹ and the specificity constant (kcat/Km) came out at 54 ± 30 M⁻¹ s⁻¹. Besides, the “stoichiometry N” value in series [6] is 2.

B2: DestiTA T199N variant (enzyme, Desulfomonile tiedjei DSM 6799, UniProt I4C827 1-302, looked up)
chain: MNSPSEVITIISYQRDRFVTTEELCFPFIGDVGGTIRGYRIFTACRTCGDKIFRIEDHLDRLYYSAASIYMKPPMNRDSLRTLLYALIQENRKAGFKDDLLIDIIFSGGLEDHTMAQSGSSAYLYIAVRELIVPPSEYYEKGVALATCSYMRMYPDVKLLNYMGAIMAHQTVVPLHNAYDVIFIYPPDGVTILEGSTFNVFFVNAEGTVVTPPLDGKILDSVTRRVVLQVLQQSGKIRLKEDRVRLDELETYPEAFMVSTTRNVLPVVRIDDRIIGSGQPGPVTREIMHLVEQYVTTFSLQQ
notes: DestiTA of Desulfomonile tiedjei DSM 6799, gene Desti_3054, Uniprot ID I4C827_DESTA, with T199N; Made by single-primer site-directed mutagenesis; also called the T199N variant; source: E. coli, purified as described for the WT DestiTA; not shown: His6, N-terminal, cleaved
B2: in series [4] (pH 8.0, 50 °C, pH 8.0, 50.0 °C), the Michaelis constant (Km) worked out at 520 ± 70 µM, the kcat is 5 s⁻¹ and the specificity constant (kcat/Km) was determined as 10000 ± 2000 M⁻¹ s⁻¹. For the same molecule, in series [5] (pH 8.0, 50 °C), the Km came to 210 ± 30 µM, the catalytic constant (kcat) is 5 ± 0.2 s⁻¹ and the catalytic efficiency (kcat/Km) is 24000 ± 4000 M⁻¹ s⁻¹. The “stoichiometry N” value in series [6] is 2.

B3: DestiTA T199Q variant (enzyme, Desulfomonile tiedjei DSM 6799, UniProt I4C827 1-302, looked up)
chain: MNSPSEVITIISYQRDRFVTTEELCFPFIGDVGGTIRGYRIFTACRTCGDKIFRIEDHLDRLYYSAASIYMKPPMNRDSLRTLLYALIQENRKAGFKDDLLIDIIFSGGLEDHTMAQSGSSAYLYIAVRELIVPPSEYYEKGVALATCSYMRMYPDVKLLNYMGAIMAHQTVVPLHNAYDVIFIYPPDGVTILEGSTFQVFFVNAEGTVVTPPLDGKILDSVTRRVVLQVLQQSGKIRLKEDRVRLDELETYPEAFMVSTTRNVLPVVRIDDRIIGSGQPGPVTREIMHLVEQYVTTFSLQQ
notes: DestiTA of Desulfomonile tiedjei DSM 6799, gene Desti_3054, Uniprot ID I4C827_DESTA, with T199Q; Made by single-primer site-directed mutagenesis; also called the T199Q variant; source: E. coli, purified as described for the WT DestiTA; not shown: His6, N-terminal, cleaved
In the case of B3, in series [4] (pH 8.0, 50 °C, pH 8.0, 50.0 °C), the Km came to 50000 ± 6000 µM, the kcat came to 8.4 s⁻¹ and the kcat/Km came to 170 M⁻¹ s⁻¹. In series [5] (pH 8.0, 50 °C), the Michaelis constant (Km) was 450 ± 70 µM, the turnover number (kcat) is 8.4 ± 0.4 s⁻¹ and the kcat/Km came out at 19000 ± 4000 M⁻¹ s⁻¹. Further, in series [6], the “stoichiometry N” value amounted to 2.

B4: D-amino acid transaminase from Desulfomonile tiedjei (DestiTA), wild type (enzyme, Desulfomonile tiedjei DSM 6799, UniProt I4C827 1-302, looked up)
chain: MNSPSEVITIISYQRDRFVTTEELCFPFIGDVGGTIRGYRIFTACRTCGDKIFRIEDHLDRLYYSAASIYMKPPMNRDSLRTLLYALIQENRKAGFKDDLLIDIIFSGGLEDHTMAQSGSSAYLYIAVRELIVPPSEYYEKGVALATCSYMRMYPDVKLLNYMGAIMAHQTVVPLHNAYDVIFIYPPDGVTILEGSTFTVFFVNAEGTVVTPPLDGKILDSVTRRVVLQVLQQSGKIRLKEDRVRLDELETYPEAFMVSTTRNVLPVVRIDDRIIGSGQPGPVTREIMHLVEQYVTTFSLQQ
notes: PLP-dependent fold type IV transaminase DestiTA of Desulfomonile tiedjei DSM 6799, gene Desti_3054, Uniprot ID I4C827_DESTA; recombinant DestiTA printed as 302 a.a., 34.2 kDa; codon-optimised synthetic gene in modified pET-21d; N-terminal (His)6-TEV-tag removed with TEV protease; also called WT DestiTA; WT; source: E. coli Rosetta(DE3) pLysS, purified (HisTrap HP, TEV cleavage, second HisTrap HP, …)
In the case of B4, in series [4] (pH 8.0, 50 °C, pH 8.0, 50.0 °C), the Km came to 500 ± 100 µM, the kcat was 5.8 s⁻¹ and the kcat/Km amounted to 11600 ± 3000 M⁻¹ s⁻¹. In addition, in series [7], the Michaelis constant (Km) turned out to be 17000 ± 2000 µM, the kcat was determined as 0.7 ± 0.1 s⁻¹ and the kcat/Km was 70 ± 20 M⁻¹ s⁻¹. In addition, in series [5] (pH 8.0, 50 °C), the Km is 110 ± 10 µM, the kcat is 5.8 ± 0.2 s⁻¹ and the kcat/Km is 53000 ± 8000 M⁻¹ s⁻¹. Further, the “stoichiometry N” value in series [6] stood at 2.

Broadly, the Kd is a measure of binding affinity in units of concentration. By Km is commonly meant the substrate concentration at which the rate is half of its maximum. A word on the kcat: it is the number of substrate molecules converted per active site and unit of time at saturation. By kcat/Km is commonly meant the second-order rate constant that governs catalysis at low substrate concentration. Usually stoichiometry N stands for a count of units in the complex or per binding partner.
